Columns and labels:
[1] = tested on: patients with relapsed/refractory CLL and related diseases; test: Phase 1b/2 study of ibrutinib combined with ofatumumab (NCT01217749): efficacy; assay type: in vivo, human; conditions: group 3, ofatumumab lead-in before initiating ibrutinib
Text: Key eligibility criteria also included failure of ≧2 prior therapies including a nucleoside analogue (unless contraindicated); ≧10% expression of CD20 on CLL/SLL cells by flow cytometry; ECOG performance status ≦2; and adequate end-organ function.
This phase 1 b/2, single-center, open-label, sequential-group study was approved by the institutional review board and conducted in accordance with the principles of the Declaration of Helsinki and the International Conference on Harmonization Guidelines for Good Clinical Practice.

[2] = tested on: patients with relapsed/refractory CLL; conditions: single agent; cited from earlier work
[3] = tested on: B-cell lines including CLL cells; conditions: compared with rituximab; cited from earlier work

ofatumumab: anti-CD20 monoclonal antibody that binds to an epitope distinct from that for rituximab
patients who progressed (PD) on ofatumumab monotherapy [1]: 17% | Major bleeding events ≧ grade 3 [2]: 1.6% | peripheral sensory neuropathy (grade 1 and 2) [2]: 13% | complement-dependent cytotoxicity and NK-cell ADCC [3]: more potent

Source: patent publication US20170360796A1, “BTK INHIBITOR COMBINATIONS AND DOSING REGIMEN” (PHARMACYCLICS LLC, priority 2014, published 2017)
